Where a chain is given by its changes, count along the chain named. In names and notes the source's numbering stands.

For orientation: Km means the substrate concentration at which the rate is half of its maximum. In general, kcat refers to the number of substrate molecules converted per active site and unit of time at saturation.

Substrate in the data set: Nc1ncnc2c1ncn2[C@@H]1O[C@H](COP(=O)(O)OP(=O)(O)OP(=O)(O)O)[C@@H](O)[C@H]1O
Put plainly: purified protein. The conditions noted are these: labelled compound, ΦX174 ssDNA, Mg2+, 65°C.

B1: SsoRadA (Sulfolobus solfataricus RadA) (Saccharolobus solfataricus P2) (protein)
chain: MSNEVEQKKNIKTINDLPGISQTVINKLIEAGYSSLETLAVASPQDLSVAAGIPLSTAQKIIKEARDALDIRFKTALEVKKERMNVKKISTGSQALDGLLAGGIETRTMTEFFGEFGSGKTQLCHQLSVNVQLPPEKGGLSGKAVYIDTEGTFRWERIENMAKALGLDIDNVMNNIYYIRAINTDHQIAIVDDLQELVSKDPSIKLIVVDSVTSHFRAEYPGRENLAVRQQKLNKHLHQLTRLAEVYDIAVIITNQVMARPDMFYGDPTVAVGGHTLYHVPGIRIQLKKSRGNRRIARVVDAPHLPEGEVVFALTEEGIRDAEE
For B1, where the note is “3.0 μM protein”, the Km amounted to 300 ± 10 µM and the kcat was 0.00085 ± 1.7e-05 s⁻¹.

B2: SsoRadA (Sulfolobus solfataricus RadA) (Saccharolobus solfataricus P2; R83A) (protein)
chain: B1 chain with R83A
Consider B2, for which, where the note is “2.5 μM protein”, the Km is 210 ± 10 µM and the kcat was determined as 0.00152 ± 1.7e-05 s⁻¹.

B3: SsoRadA (Sulfolobus solfataricus RadA) (Saccharolobus solfataricus P2; F73D) (protein)
chain: B1 chain with F73D
For B3, for the setting “5.0 μM protein”, the Km was found to be 490 ± 30 µM and the kcat was 0.00085 ± 1.7e-05 s⁻¹.

B4: SsoRadA (Sulfolobus solfataricus RadA) (Saccharolobus solfataricus P2; R83E) (protein)
chain: B1 chain with R83E
On to B4, for which, for the setting “5.0 μM protein”, the Km stood at 460 ± 60 µM and the kcat amounted to 0.000867 ± 6.7e-05 s⁻¹.

The values above are taken from PMC1874592.
